Results from publication PMC2042504.

What was measured:
[1] = biological target: 35S-labeled full-length Vpu protein, in vitro translated (gel permeation) (HIV-1, isolate not stated (NL4-3 and R5 cloned)); experiment: SEC; gel permeation of 35S-labeled in vitro translation mixture on Sephacryl S200HR in PBS, calibrated with lysozyme and BSA; pentamer and monomer peaks
[2] = biological target: 35S-labeled Vpu TM domain, in vitro translated (gel permeation) (HIV-1, isolate not stated (NL4-3 and R5 cloned)); experiment: as above
[3] = biological target: Vpu fused to ECFP or to EYFP (HIV-1, isolate not stated (NL4-3 and R5 cloned)); experiment: FRET or BRET; acceptor photobleaching FRET of ECFP-Vpu and EYFP-Vpu in live U2-OS cells, regions that appeared to be Golgi or unidentified vesicles
[4] = biological target: Vpu fused to ECFP or to EYFP (HIV-1, isolate not stated (NL4-3 and R5 cloned)); experiment: FRET or BRET; acceptor photobleaching FRET of ECFP-Vpu and EYFP-Vpu in live COS-1 cells with low expression, punctate and vesicular distribution

“35S-labeled full-length Vpu protein, in vitro translated (gel permeation) (natural protein)” gave a percent of the radioactivity in the oligomer peak [1] of 10% and a stoichiometry N [1] of 5.
Substance “35S-labeled Vpu TM domain, in vitro translated (gel permeation) (domain or fragment)” has a percent of the radioactivity in the oligomer peak [2] of 10% and a stoichiometry N [2] of 5.
“Vpu fused to ECFP or to EYFP (natural protein)” was tested, and the FRET efficiency [3] was 26% and the FRET efficiency [4] was 18.5%.
